Results as given in patent US20260234121A1, “DERIVATIVES, IMMUNOGENS, AND ANTIBODIES AND USE OF THE SAME IN DETECTION OF ECSTASY-CLASS COMPOUNDS” (Siemens Healthcare Diagnostics Inc., priority 2023, published 2026).
Substitutions are numbered along the chain they refer to.

B1: 178K 3C8 mAb: mouse monoclonal antibody raised against E1-KLH (56); IgG1, κ; heavy chain SEQ ID NO 88, light chain SEQ ID NO 112 (antibody)
heavy: MNFGLSLIFLVLILKGVQCEVQLVESGGDLVKPGESLKLACAASGFTFSRDVMSWVRQTPDKRLEWVATISSNGIYIYYTDSVKGRFTISRDNAKNTLYLQLSSLRSEDTAVYYCSRGNNLDSWGQGTTLTVSSAKTTPPSVYPLAPGSAAQTNSMVTLGCLVKGYFPEPVTVTWNSGSLSSGVHTFPAVLQSDLYTLSSSVTVPSSTWPSETVTCNVAHPASSTKVDKKIVPRDCGCKPCICTVPEVSSVFIFPPKPKDVLTITLTPKVTCVVVDISKDDPEVQFSWFVDDVEVHTAQTQPREEQFNSTFRSVSELPIMHQDWLNGKEFKCRVNSAAFPAPIEKTISKTKGRPKAPQVYTIPPPKEQMAKDKVSLTCMITDFFPEDITVEWQWNGQPAENYKNTQPIMDTDGSYFIYSKLNVQKSNWEAGNTFTCSVLHEGLHNHHTEKSLSHSPGK
light: MRFSAQLLGLLVLWIPGSTADIVMTQAAFSNPVTLGTSASISCRSSKSLLHRNGITYLYWYLQKPGQSPQLLIYQMSNLASGVSDRFSSSGSGTDFTLRISRVEAEDVGVYFCGQDLELPYSFGGGTKLEIKRADAAPTVSIFPPSSEQLTSGGASVVCFLNNFYPKDINVKWKIDGSERQNGVLNSWTDQDSKDSTYSMSSTLTLTKDEYERHNSYTCEATHKTSTSPIVKSFNRNEC
B2: 178K 5B11 mAb: mouse monoclonal antibody raised against E1-KLH (56); IgG1, κ; heavy chain SEQ ID NO 90, light chain SEQ ID NO 114 (antibody)
heavy: MNFGLSLIFLALILKGVQCEVQLVESGGDLVKPGGSLKLSCAASGFSFSAYVMSWVRQTPDKRLEWVATISRGGSYIYYPDSVKGRFTISRDDARDTLYLQMTSLKSEDTAVYYCSGGNNLDYWGQGTALTVSSAKTTPPSVYPLAPGSAAQTNSMVTLGCLVKGYFPEPVTVTWNSGSLSSGVHTFPAVLQSDLYTLSSSVTVPSSTWPSETVTCNVAHPASSTKVDKKIVPRDCGCKPCICTVPEVSSVFIFPPKPKDVLTITLTPKVTCVVVDISKDDPEVQFSWFVDDVEVHTAQTQPREEQFNSTFRSVSELPIMHQDWLNGKEFKCRVNSAAFPAPIEKTISKTKGRPKAPQVYTIPPPKEQMAKDKVSLTCMITDFFPEDITVEWQWNGQPAENYKNTQPIMDTDGSYFIYSKLNVQKSNWEAGNTFTCSVLHEGLHNHHTEKSLSHSPGK
light: B1 light with H51Q, R52I, S84P, F112Y, S122T
B3: 178F 4H5 mAb: mouse monoclonal antibody raised against E1-KLH (56); IgG2a, κ; heavy chain SEQ ID NO 81, light chain SEQ ID NO 105 (antibody)
heavy: MNFGLSLIFLALILKGVQCEVQLVESGGDLVQPGGSLILSCVASGFTFRNYVMSWIRQTPDKRLEWVATINSGGSYTYYPDTVKGRFTISRDNAKSTLYLQMSSLKSEDTAMYYCASGNFLDYWGQGTSVTVSSAKTTPPSVYPLAPGSAAQTNSMVTLGCLVKGYFPEPVTVTWNSGSLSSGVHTFPAVLQSDLYTLSSSVTVPSSTWPSQTVTCNVAHPASSTKVDKKIVPRDCGCKPCICTVPEVSSVFIFPPKPKDVLTITLTPKVTCVVVDISKDDPEVQFSWFVDDVEVHTAQTKPREEQINSTFRSVSELPIMHQDWLNGKEFKCRVNSAAFPAPIEKTISKTKGRPKAPQVYTIPPPKEQMAKDKVSLTCMITNFFPEDITVEWQWNGQPAENYKNTQPIMDTDGSYFVYSKLNVQKSNWEAGNTFTCSVLHEGLHNHHTEKSLSHSPGK
light: B1 light with H51N, R52S, N53Y, S84P, F112Y, S122T, G125S, K128Q
B4: 178F 4C12 mAb: mouse monoclonal antibody raised against E1-KLH (56); IgG1, κ; heavy chain SEQ ID NO 80, light chain SEQ ID NO 104 (antibody)
heavy: MNFGLSLIFLALILKGVQCEVQLVESGGDLVKPGGSLKLSCAASGFTFSRFVMSWVRQTPDKRLEWVATISSGGIHTYYLDSVKGRVTIFRDNAKNTLYLQMSSLESEDTAMYYCAAGNALDYWGQGTSVTVSSAKTTAPSVYPLAPVCGGTTGSSVTLGCLVKGYFPEPVTLTWNSGSLSSGVHTFPALLQSGLYTLSSSVTVTSNTWPSQTITCNVAHPASSTKVDKKIEPRVPITQNPCPPLKECPPCAAPDLLGGPSVFIFPPKIKDVLMISLSPMVTCVVVDVSEDDPDVQISWFVNNVEVHTAQTQTHREDYNSTLRVVSALPIQHQDWMSGKEFKCKVNNRALPSPIEKTISKPRGPVRAPQVYVLPPPAEEMTKKEFSLTCMITGFLPAEIAVDWTSNGRTEQNYKNTATVLDSDGSYFMYSKLRVQKSTWERGSLFACSVVHEGLHNHLTTKTISRSLGK
light: B1 light with A39G, I41V, R52S, S84P, S90T, F112Y, G125S
B5: 178H 2A7 mAb: mouse monoclonal antibody raised against E1-KLH (56); IgG1, κ; heavy chain SEQ ID NO 82, light chain SEQ ID NO 106 (antibody)
heavy: MNFGLSLISLALILKGVQCEVHLVESGGDLVKPGGSLKLSCAASGFTFSSYVMSWVRQTPDKRLEWIATISYGGGHYTYYPDSVKGRFTISRDNAKNTLYLQMNSLKSDDTAMYYCSSGNALNYWGQGTSVTVSSAKTTPPSVYPLAPGSAAQTNSMVTLGCLVKGYFPEPVTVTWNSGSLSSGVHTFPAVLQSDLYTLSSSVTVPSSTWPSQTVTCNVAHPASSTKVDKKIVPRDCGCKPCICTVPEVSSVFIFPPKPKDVLTITLTPKVTCVVVDISKDDPEVQFSWFVDDVEVHTAQTKPREEQINSTFRSVSELPIMHQDWLNGKEFKCRVNSAAFPAPIEKTISKTKGRPKAPQVYTIPPPKEQMAKDKVSLTCMITNFFPEDITVEWQWNGQPAENYKNTQPIMDTDGSYFVYSKLNVQKSNWEAGNTFTCSVLHEGLHNHHTEKSLSHSPGK
light: B1 light with R52Y, N53T, S84P, F112Y, G125S

tested on: not listed separately; test: Prototype EMIT ecstasy assay, cross-reactivity with amphetamine; assay type: biochemical; settings: conjugate Compound 58; negative urine pool

Molecule | Concentrations (μg/mL) of Structurally Related Compounds Equivalent to 500 ng/mL MDMA Cutoffs, (+/−) Amph
B1 | 30 µg/mL
B2 | 25 to 30 µg/mL
B3 | 30 µg/mL
B4 | 40 to 45 µg/mL
B5 | 40 to 45 µg/mL

tested on: not listed separately; test: Prototype EMIT ecstasy assay, cross-reactivity with methamphetamine; assay type: biochemical; settings: conjugate Compound 58; negative urine pool

Molecule | Concentrations (μg/mL) of Structurally Related Compounds Equivalent to 500 ng/mL MDMA Cutoffs, (+/−) mAmph
B1 | 50 µg/mL
B2 | 30 to 50 µg/mL
B3 | 30 to 40 µg/mL
B4 | 40 to 50 µg/mL
B5 | 30 to 40 µg/mL

tested on: E1-OVA (55); test: ELISA binding of hybridoma supernatant to E1-OVA (55) coated plates, without inhibitor; settings: hybridoma supernatant mixed with PBS alone
Description: All ELISA steps were performed at rt. Wells of a Nunc Maxi-Sorp™ flat-bottom ELISA plates (ThermoFisher Scientific, Waltham, MA) were coated with 50 μL E1-OVA (55), E2-OVA (65), and E3-OVA (72) at a concentration of 1 μg/mL in PBS for 1 h. The plates were flicked dried and remaining binding sites were blocked with 200 μL per well of blocking solution (0.5% casein, 0.05% (v/v) Tween 20 in PBS) for one hour. Plates were washed six times with MilliQ water containing 0.05% (v/v) Tween 20 on Biotek 405 LS plate washer equipped with microplate Biostacker 3 (Biotek, Winooski, VT). 50 μL of serially diluted antibody samples (serial dilutions of serum, hybridoma supernatant, or monoclonal antibodies in PBS) were added to each well and incubated for one hour. Unbound antibodies were removed by washing as described above, and 50 μL of secondary goat anti-rabbit IgG HRP or goat anti-mouse IgG (Fc)-HRP conjugate (ThermoFisher Scientific, USA), diluted 1:3,000 in the blocking solution was added to each well for detection bound rabbit or mouse antibody, respectively. Plates were incubated for one hour, washed and 100 μL of TMB substrate (Moss, Pasadena, MD) was added for 15 min to determine bound peroxidase. Optical density (OD) of the samples at 650 nm was measured using an ELISA plate reader (Molecular Devices LLC., San Jose, CA). The titer of each serum sample was designated as the maximum dilution that yielded at least twice the absorbance of the same dilution of the nonimmune control serum.
The supernatants were screened in a competitive ELISA for the presence of anti-ecstasy compound monoclonal antibodies (mAbs) as follows. 25 μL of the hybridoma supernatant was mixed with equal volume of PBS alone or containing 20 μg/mL inhibitor (MDA or MDMA) were incubated for 1 h in the wells of E1-OVA (55) coated ELISA plates. The plates were washed and the presence of bound mAbs were detected using goat anti-mouse IgG (Fc)-HRP conjugate and TMB substrate as described above. The level of inhibition of mAb/E1-OVA (55) binding in the presence of the inhibitor was estimated using a Percent (%) Inhibition calculated by the below formula:
[formula] • where “OD650 nm w/o Inhibitor” is the binding response of the antibody sample diluted in PBS alone (with no inhibitor), and the “OD650 nm with Inhibitor” is the binding response of the same antibody sample in the presence of 10 μg/mL of inhibitor (i.e., MDA or MDMA). […]

Molecule | E1-OVA (55) Binding, OD650 nm w/o inhib
B1 | 2.389 OD650 nm
B2 | 2.893 OD650 nm
B3 | 2.948 OD650 nm
B4 | 2.836 OD650 nm
B5 | 2.900 OD650 nm
